Data taken from paper PMC3494873 (EMBO Molecular Medicine, 2012).
Read-outs that look alike come from different tables or passages of the source.

B1: Recombinant Fc-his-tag-E-cadherin (extracellular portion) (Fc fusion, UniProt P12830 155-709, looked up)
chain: DWVIPPISCPENEKGPFPKNLVQIKSNKDKEGKVFYSITGQGADTPPVGVFIIERETGWLKVTEPLDRERIATYTLFSHAVSSNGNAVEDPMEILITVTDQNDNKPEFTQEVFKGSVMEGALPGTSVMEVTATDADDDVNTYNAAIAYTILSQDPELPDKNMFTINRNTGVISVVTTGLDRESFPTYTLVVQAADLQGEGLSTTATAVITVTDTNDNPPIFNPTTYKGQVPENEANVVITTLKVTDADAPNTPAWEAVYTILNDDGGQFVVTTNPVNNDGILKTAKGLDFEAKQQYILHVAVTNVVPFEVSLTTSTATVTVDVLDVNEAPIFVPPEKRVEVSEDFGVGQEITSYTAQEPDTFMEQKITYRIWRDTANWLEINPDTGAISTRAELDREDFEHVKNSTYTALIIATDNGSPVATGTGTLLLILSDVNDNAPIPEPRTIFFCERNPKPQVINIIDADLPPNTSPFTAELTHGASANWTIQYNDPTQESIILKPKMALEVGDYKINLKLMDNQNKDQVTTLEVSVCDCEGAAGVCRKAQPVEAGLQIPA
B2: Recombinant angiopoietin-like 6 (ligand, UniProt Q8NI99 21-470, looked up)
chain: RAGAPRCTYTFVLPPQKFTGAVCWSGPASTRATPEAANASELAALRMRVGRHEELLRELQRLAAADGAVAGEVRALRKESRGLSARLGQLRAQLQHEAGPGAGPGADLGAEPAAALALLGERVLNASAEAQRAAARFHQLDVKFRELAQLVTQQSSLIARLERLCPGGAGGQQQVLPPPPLVPVVPVRLVGSTSDTSRMLDPAPEPQRDQTQRQQEPMASPMPAGHPAVPTKPVGPWQDCAEARQAGHEQSGVYELRVGRHVVSVWCEQQLEGGGWTVIQRRQDGSVNFFTTWQHYKAGFGRPDGEYWLGLEPVYQLTSRGDHELLVLLEDWGGRGARAHYDGFSLEPESDHYRLRLGQYHGDAGDSLSWHNDKPFSTVDRDRDSYSGNCALYQRGGWWYHACAHSNLNGVWHHGGHYRSRYQDGVYWAEFRGGAYSLRKAAMLIRPLKL

Columns and labels:
Assay in all cases: SPR
[1] = molecular target: T1, Recombinant his-tag-α6β4 integrin (extracellular portions) (UniProt P23229-2 24-1011; P16144 28-710)
[2] = molecular target: B1
[3] = molecular target: T1, Recombinant his-tag-α6β4 integrin …; remark: listed apart in the source

Binder | Kd [1] [nM] | Kd [2] [nM] | Kd [3] [nM]
B1 | 5.3 to 16.8 | – | –
B2 | – | 29 | 2.03
